Measurements from patent publication US20060210568A1, “Methods and compositions for cancer treatment” (priority 2003, published 2006).
“Also recorded” adds a separate entry of the source.

Tests used:
Format in all cases: cell-based, human
MCF-7 cells [1] = experiment: Oil Red O staining of lipid droplets; settings: ADRP overexpressing versus EV MCF-7 cells, FIG. 4B
Experimental: This is also supported by the fact that ADRP overexpressing cells accumulated lipid droplets at a higher level (higher number of droplets per cells and higher number of cells having droplets than the empty vector control MCF-7 cells as shown in FIG. 4A and FIG. 4B. A 5-fold increase in lipid droplets accumulation was observed (FIG. 4B). Specifically, cells were plated at the concentration of 2×10^5 per 35-mm dish in 5% FBS DMEM/F12. After 48 h of incubation, cells were washed once with PBS and fixed in 4% formalin for 30 min. Oil Red O working solution was added to cover all the cells, and the cells were incubated at 37° C. for 1 h. The Working Solution was prepared by mixing 6 ml 0.5% Oil Red O in isopropanol with 4 ml H2O, and centrifuging at 4000 g for 10 min to remove sediments. The plates were washed with tap water twice. Cells were counterstained by Hematoxylin QS (Vector Laboratories, California) for 45 sec, and washed with tap water.

[2] = test system: ADRP overexpressing cells (MCF7-C4); experiment: proliferation assay, ADRP overexpressing MCF-7 cells; settings: serum containing medium, with or without hormones and growth factors, FIGS. 1 and 2
Experimental: The vector used to over-express ADRP in MCF-7 cells is the ADRP-pcDNA3 vector described in Gao and Serrero, 1999. The G418 resistance gene was used as selectable marker. MCF-7 cells were transfected with the ADRP-pcDNA3 plasmid, using the lipofectamine method. Specifically, MCF-7 cells (WT) were plated onto 60-mm dish at the concentration of 2×10^5 cell per plate in 5% fetal bovine serum (FBS) in DMEM/F12 (1:1 mixture of Dulbecco's modified Eagle's medium and Ham' nutrient F12 medium) overnight before transfection. Cells were washed once with serum-free DMEM/F12 (without antibiotic). The lipofectamine method was used for the transfection. Specifically, 2 μg mouse ADRP pcDNA3 construct was used. Transfection was carried on according to manufacturer's recommendations, with 15 μl of lipofectamine and 5 hours of incubation. After transfection, the medium was replaced with 5% FBS DMEM/F12 and the cells were incubated overnight. G418 at the concentration of 800 μg/ml was added the day after for selection. Cells were selected with this medium for 3 weeks. Six clones were isolated and subjected to RT-PCR to determine the existence of the transfection construct. […] Cell numbers were counted by hemacytometer every two days. […]

[3] = test system: beta casein expression in MCF-7 cells; experiment: beta casein expression by RT-PCR as marker of breast cancer cell differentiation; settings: versus control cells with no detectable level, FIG. 3A
From the text: We then explored whether growth inhibition of cells overexpressing ADRP was accompanied by stimulated differentiation of the cells. In order to investigate this possibility, we measured the expression of markers of differentiation such as beta casein in the ADRP expressing cells when compared to EV cells. Beta casein is routinely used as a marker of mammary epithelial cell differentiation. We show by RT-PCR that the ADRP overexpressing cells express high level of casein mRNA. In contrast, the control cells had no detectable level of the gene product (see FIG. 3A). In FIG. 3A, GAPDH (Glyceraldehyde-3-phosphate dehydrogenase) loading was used as an internal control for equal sample mRNA expression. […] Measurement of Beta casein expression as marker of breast cancer cell differentiation was by RT-PCR as described above.

bcl-2 = bcl-2 expression in ADRP MCF-7 versus control MCF-7 cells; settings: ADRP overexpressing versus empty vector control cells, FIG. 5
From the text: This is shown by down-regulation of bcl-2 in ADRP MCF-7 cells when compared to control MCF-7 cells. […] In other words, ADRP overexpression sensitizes the cells to apoptotic stimuli.

MCF-7 cells [4] = experiment: FACS analysis of apoptosis and G1 phase; settings: ADRP-MCF-7 versus EV-MCF-7 cells
From the text: Increased of percentage of cells in apoptosis and in G1 phase is shown by FACS analysis of ADRP-MCF-7 cells and EV-MCF-7 cells.

B1: ADRP: 50-kDa adipose differentiation related protein, over-expressed in MCF-7 cells by transfection with mouse ADRP pcDNA3 construct (protein, UniProt P43883 2-425, looked up)
Perilipin-2: AAAVVDPQQSVVMRVANLPLVSSTYDLVSSAYVSTKDQYPYLRSVCEMAEKGVKTVTSAAMTSALPIIQKLEPQIAVANTYACKGLDRMEERLPILNQPTSEIVASARGAVTGAKDVVTTTMAGAKDSVASTVSGVVDKTKGAVTGSVERTKSVVNGSINTVLGMVQFMNSGVDNAITKSELLVDQYFPLTQEELEMEAKKVEGFDMVQKPSNYERLESLSTKLCSRAYHQALSRVKEAKQKSQETISQLHSTVHLIEFARKNMHSANQKIQGAQDKLYVSWVEWKRSIGYDDTDESHCVEHIESRTLAIARNLTQQLQTTCQTVLVNAQGLPQNIQDQAKHLGVMAGDIYSVFRNAASFKEVSDGVLTSSKGQLQKMKESLDEVMDYFVNNTPLNWLVGPFYPQSTEVNKASLKVQQSEVKAQ
modifications: expressed from pcDNA3
notes: 50-kDa adipose differentiation related protein, over-expressed in MCF-7 cells by transfection with mouse ADRP pcDNA3 construct
MCF-7 cells [1]
  increase in lipid droplets accumulation: ~5 fold
[2]
  growth of cells over-expressing ADRP: grow very slowly
[3]
  casein mRNA expression in ADRP overexpressing cells: stimulation of casein expression; also recorded: high level
bcl-2
  Bcl-2 expression: dramatically decreased; also recorded: much lower level
MCF-7 cells [4]
  percentage of cells in apoptosis and in G1 phase: Increased
